Experimental findings from paper PMC10352329 (2023) are described below.

Where no end group is shown, it is not given here.

Assay [1] addresses N-terminal bromodomain of human BRD4 (residues 44–168) (human, UniProt O60885 44-168). In words: ITC. (In general: Isothermal titration calorimetry measures the heat released or taken up as one component is titrated into another.)
The target in assay [2] is T1, human p300BRP (residues 1048–1282), wild type (human, UniProt Q09472 1048-1282, fluorescently labeled with a His tag Labeling Kit (microscale thermophoresis only)).
T1 chain: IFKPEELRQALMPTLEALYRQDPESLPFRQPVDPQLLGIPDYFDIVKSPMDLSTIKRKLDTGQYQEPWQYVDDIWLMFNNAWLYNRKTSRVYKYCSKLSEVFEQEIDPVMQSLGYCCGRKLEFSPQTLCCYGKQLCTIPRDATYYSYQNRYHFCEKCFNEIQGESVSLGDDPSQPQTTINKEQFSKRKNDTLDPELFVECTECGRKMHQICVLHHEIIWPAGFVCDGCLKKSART
The experiment in a line: ITC.

Assay [3] deals with 180-bp unmodified nucleosome (human, UniProt P04908 1-130; P68431 1-136; P62805 1-103). The experiment in a line: MST.

One may read the Kd as the equilibrium constant for the complex coming apart. The low end stands for higher affinity, the high end for lower affinity. Regarding KAVTK(Ac)AQK(Ac)KDGK [di-acetylated H2B peptide K20ac/K23ac], the Kd in assay [1] is over 500 µM. PAPKK(Ac)GSK(Ac)KAVTK [di-acetylated H2B peptide K12ac/K15ac] registered a Kd in assay [2] of over 500 µM.

B1: human p300BRP (residues 1048–1282), 4A-substituted mutant (R1133A, K1134A, R1137A, K1140A) (domain or fragment)
chain: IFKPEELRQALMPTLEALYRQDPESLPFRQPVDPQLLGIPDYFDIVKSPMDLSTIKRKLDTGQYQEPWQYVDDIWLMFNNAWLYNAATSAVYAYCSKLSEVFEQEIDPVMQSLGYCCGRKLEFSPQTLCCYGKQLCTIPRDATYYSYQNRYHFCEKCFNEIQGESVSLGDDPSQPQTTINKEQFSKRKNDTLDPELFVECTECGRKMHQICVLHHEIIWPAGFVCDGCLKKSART
modifications: fluorescently labeled with a His tag Labeling Kit (microscale thermophoresis)
One may read the EC50 as the concentration needed to bring the measured effect to its halfway point. The low end stands for an effect from little substance, the high end for a need for much substance. B1 registered an EC50 in assay [3] of 0.0073 µM.
